Measurements reported in the supplement of paper PMC7877785.
± gives the uncertainty stated by the source.

Test: self-splicing fitness, log relative to wild type (ln ratio); higher = more splicing; Tetrahymena group I intron in knt gene, E. coli kanamycin selection, DiMSum; sequences stand for … in CUCUCU…GGAGGGAAAAGUUAUCAGGCAUGCACCUGGUAGCUAGUCUUUAAACCAAUAGAUUGCAUCGGUUUAAAAGGCAAGACCGUCAAAUUGCGGGAAAGGGGUCAACAGCCGUUCAGUACCAAGUCUCAGGGGAAACUUUGAGAUGGCCUUGCAAAGGGUAUGGUAAUAAGCUGACGGACAUGGUCCUAACCACGCAGCCAAGUCCUAAGUCAACAGAUCUUCUGUUGAUAUGGAUGCAGUUCACAGACUAAAUGUCGGUCGGGGAAGAUGUAUUCUUCUCAUAAGAUAUAGUCGGACCUCUCCUUAAUGGGAGCUAGCGGAUGAAGUGAUGCAACACUGGAGCCGCUGGGAACUAAUUUGUAUGCGAAAGUAUAUUGAUUAGUUUUGGAGUACUCGUGGUCG
Method in brief: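 DiMSum derived fitness as the error-weighted combination of fold changes across replicates, kanamycin versus no kanamycin, normalised to wild type. E. coli BL21(DE3) held the library, which randomised all eight P1ex-region intron nucleotides within the knt kanamycin-resistance gene on pET-22b(+). Six replicate transformations grew overnight at 37°C or 30°C on LB agar with or without 25 μg/mL kanamycin, also containing 100 μg/mL carbenicillin, 50 μM IPTG and 0.2% rhamnose, and pooled colonies were amplicon-sequenced on an Illumina HiSeq 2500.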

Sequence | self-splicing fitness (ln) (30 °C) | self-splicing fitness (ln) (37 °C)
AGGAAGCAAUAUUACGACCU | -2.74 ± 0.22 | -2.29 ± 0.21
CAAAAGCAAUAUUACGCUUU | -3.96 ± 0.21 | -2.55 ± 0.17
CUUUAGCAAUAUUACGUCCA | -3.2 ± 0.41 | -0.864 ± 0.24
AGGGAGCAAUAUUACGUGAU | -3.34 ± 0.25 | -2.91 ± 0.26
AUCCAGCAAUAUUACGUAAU | -0.922 ± 0.072 | -0.492 ± 0.079
UGAAAGCAAUAUUACGGGAA | -2.6 ± 0.14 | -1.62 ± 0.12
CAUUAGCAAUAUUACGCUCC | – | -1.18 ± 0.38
GGACAGCAAUAUUACGCGAU | -2.52 ± 0.17 | -2.52 ± 0.17
CCUCAGCAAUAUUACGGACG | -0.587 ± 0.064 | 0.272 ± 0.081
AACGAGCAAUAUUACGUAGC | -3.51 ± 0.19 | -2.44 ± 0.17
CGGCAGCAAUAUUACGGCUC | -0.945 ± 0.11 | -0.28 ± 0.15
ACCGAGCAAUAUUACGACCA | – | -0.694 ± 0.33
CAAUAGCAAUAUUACGCUUA | -2.06 ± 0.1 | -1.74 ± 0.11
GUUCAGCAAUAUUACGUUUA | -1.21 ± 0.11 | -0.233 ± 0.09
CACCAGCAAUAUUACGCCGG | -2.23 ± 0.15 | -0.937 ± 0.14
GGCGAGCAAUAUUACGCAAU | -2.22 ± 0.12 | -0.788 ± 0.13
GCAUAGCAAUAUUACGGUGG | -2.55 ± 0.15 | -1.31 ± 0.13
AUCUAGCAAUAUUACGUGAU | -1.16 ± 0.14 | -2.25 ± 0.32
UAUCAGCAAUAUUACGCGAG | -0.712 ± 0.057 | -0.298 ± 0.071
CACUAGCAAUAUUACGGGCA | -1.91 ± 0.21 | -1.71 ± 0.21
GUACAGCAAUAUUACGUGCG | -2.57 ± 0.12 | -1.21 ± 0.095
GUCUAGCAAUAUUACGAUGA | -1.21 ± 0.28 | -0.329 ± 0.13
AAUUAGCAAUAUUACGUGUG | -2.11 ± 0.11 | -0.784 ± 0.096
GCAAAGCAAUAUUACGAACG | -1.46 ± 0.077 | -0.561 ± 0.11
UUCCAGCAAUAUUACGACCG | -1.25 ± 0.099 | -0.758 ± 0.14
CGGCAGCAAUAUUACGGUGC | -2.88 ± 0.16 | -2.18 ± 0.19

Sequence | self-splicing fitness (ln) (30 °C) | self-splicing fitness (ln) (37 °C)
AUACAGCAAUAUUACGCGUA | -1.76 ± 0.11 | -0.809 ± 0.097
GUUAAGCAAUAUUACGACGA | -1.13 ± 0.11 | -1.14 ± 0.12
CCCCAGCAAUAUUACGUCCA | -3.34 ± 0.19 | -3.2 ± 0.28
UACGAGCAAUAUUACGCUUA | -1.96 ± 0.25 | -0.594 ± 0.22
ACGGAGCAAUAUUACGGUAA | -2.95 ± 0.49 | -3.1 ± 0.28
CUCGAGCAAUAUUACGAUAU | -4.2 ± 0.31 | -1.91 ± 0.25
GGCUAGCAAUAUUACGCAGA | -1.3 ± 0.1 | -0.502 ± 0.11
CUAUAGCAAUAUUACGUCAU | -2.83 ± 0.33 | -3.05 ± 0.24
UGCGAGCAAUAUUACGCACU | -1.68 ± 0.27 | -1.66 ± 0.24
ACUUAGCAAUAUUACGUGUA | -2.37 ± 0.11 | -1.43 ± 0.095
GUCAAGCAAUAUUACGGAUA | -2.47 ± 0.19 | -1.27 ± 0.17
AUGCAGCAAUAUUACGUAAG | -0.932 ± 0.062 | -0.743 ± 0.077
CGUAAGCAAUAUUACGUGUC | -1.85 ± 0.22 | -3.01 ± 0.28
CGAUAGCAAUAUUACGCAAU | -3.43 ± 0.27 | -2.26 ± 0.25
CAUGAGCAAUAUUACGUUGA | -2.92 ± 0.18 | -3.4 ± 0.29
ACCAAGCAAUAUUACGUUAA | -3.17 ± 0.18 | -2.46 ± 0.17
GUAAAGCAAUAUUACGGUGC | -2.22 ± 0.083 | -0.36 ± 0.083
AUAUAGCAAUAUUACGUCGU | -1.12 ± 0.12 | -0.541 ± 0.18
UAUAAGCAAUAUUACGUGUA | -1.48 ± 0.1 | -0.896 ± 0.1
ACGAAGCAAUAUUACGGCGA | -0.157 ± 0.087 | 0.0766 ± 0.12
UGCCAGCAAUAUUACGAGGG | -2.61 ± 0.18 | -1.94 ± 0.19
CACAAGCAAUAUUACGCCUC | -2.86 ± 0.2 | -1.95 ± 0.23
GUCAAGCAAUAUUACGAACG | -2.06 ± 0.15 | -1.27 ± 0.15
CUUUAGCAAUAUUACGGGGG | -4.05 ± 0.46 | -2.65 ± 0.45
CUGCAGCAAUAUUACGUUAU | -3.94 ± 0.17 | -3.07 ± 0.3
ACACAGCAAUAUUACGGCAC | -1.6 ± 0.066 | -0.725 ± 0.084

Sequence | self-splicing fitness (ln) (30 °C) | self-splicing fitness (ln) (37 °C)
CUGAAGCAAUAUUACGUUCC | – | -2.57 ± 0.3
AGAUAGCAAUAUUACGGGUU | -2.78 ± 0.2 | -2.29 ± 0.25
GUGGAGCAAUAUUACGCUAU | -2.85 ± 0.25 | –
AAUUAGCAAUAUUACGGCAG | -0.691 ± 0.11 | -0.322 ± 0.1
UAGAAGCAAUAUUACGAGAG | -3.63 ± 0.28 | -1.46 ± 0.34
UAUGAGCAAUAUUACGAUAU | -3.47 ± 0.26 | -2.02 ± 0.36
UAAUAGCAAUAUUACGAUAC | -3.78 ± 0.43 | –
ACUAAGCAAUAUUACGGAUC | -2.21 ± 0.13 | -1.3 ± 0.14
ACGGAGCAAUAUUACGACCU | -1.69 ± 0.2 | -1.34 ± 0.25
AUACAGCAAUAUUACGCCUC | -2.79 ± 0.2 | -1.86 ± 0.17
UUUUAGCAAUAUUACGAACU | -1.75 ± 0.34 | -0.164 ± 0.23
AUCCAGCAAUAUUACGGGUC | -3.06 ± 0.12 | -1.62 ± 0.13
UGACAGCAAUAUUACGCAUU | -3.85 ± 0.18 | -2.4 ± 0.14
CAGGAGCAAUAUUACGACCG | 0.66 ± 0.2 | 0.00703 ± 0.17
UAUCAGCAAUAUUACGGGGG | -1.51 ± 0.092 | -1.11 ± 0.14
CCGUAGCAAUAUUACGUAGG | -3.19 ± 0.17 | -1.87 ± 0.19
UGGCAGCAAUAUUACGGUCG | -0.881 ± 0.083 | 0.133 ± 0.13
UGAAAGCAAUAUUACGUAGC | -3.52 ± 0.37 | -1.5 ± 0.36
AUGUAGCAAUAUUACGCAAA | -2.34 ± 0.33 | -1.07 ± 0.2
AGUCAGCAAUAUUACGCAAA | -1.62 ± 0.11 | -1.01 ± 0.15
UCCGAGCAAUAUUACGAGAC | -3.1 ± 0.32 | -2.81 ± 0.4
UAACAGCAAUAUUACGCUCC | -2.62 ± 0.32 | -1.22 ± 0.3
AUACAGCAAUAUUACGGGUA | -1.24 ± 0.078 | -0.645 ± 0.078
UUUUAGCAAUAUUACGACGG | -0.13 ± 0.14 | -0.173 ± 0.18
